Results reported in EP4786489A1, “IL-22 MUTANT, PREPARATION METHOD THEREFOR, AND USE THEREOF” (Nanjing Novoacine Biotechnology Co., Ltd., priority 2023, dated 2025).

Key:
[1] = test system: Reg3β; assay: Mouse PD: plasma Reg3β after single administration (ELISA); assay type: in vivo; parameters: Reg3βCmax: unit not given here; conditions: for Reg3βCmax: mouse plasma, wt IL-22 i.p.
Description: The ELISA method was used to determine the baseline levels and post-dose changes of the biomarker Reg3β in plasma samples before and after administration of different test candidates.
For the preferable test candidates, one mouse per dose group was subcutaneously injected at 0.5, 1, or 3 mg/kg. The control molecules were IL-22-Fc, administered subcutaneously at 0.3 and 1 mg/kg, and wt IL-22, administered intraperitoneally at the corresponding doses.
Approximately 40 µL of orbital blood was collected with anticoagulation on the day before dosing and at 4, 24, 48, 96, 144, 192, 264, 336, and 408 hours after dosing, followed by plasma separation. ELISA plates were coated overnight at 4°C with 1 µg/mL anti-Reg3β (Sino Biological, 51153-R065) dissolved in PBS. Mouse Reg3β (Sino Biological, 51153-M08H) was serially diluted to generate a positive control standard curve. Plasma samples were appropriately diluted to fall within the linear range of the standard curve. After blocking, samples were added and incubated for 2 hours. Incubation was then performed with the secondary antibody sheep anti-mouse Reg3β (R&D Systems, AF5110-SP) and HRP-conjugated antibody (HRP-Rabbit anti-sheep IgG H&L, Abcam, Ab97130). After final washing, tetramethylbenzidine peroxidase substrate (TMB, Surmodics, TMBS-1000-01) was added for color development for 10 minutes. The reaction was terminated with 2 M sulfuric acid, and absorbance was read at 450 nm with 630 nm as reference using a microplate reader. The original concentrations of Reg3β in each sample were calculated. Concentration versus time curves were plotted (Figure 9).

[2] = test system: ear skin inflammation; conditions: mouse, in vivo
Description: Balb/C mice were used for induction of ear skin inflammation. By repeated inner-ear injections of the test candidates, changes in ear swelling thickness after injection were measured to reflect the ability of the test candidates to induce local inflammatory responses in the skin.
On Days 0, 1, 2 and 4, 5 µL of PBS solution containing the indicated amount of each test candidate was injected into the inner side of both ears of each mouse. Ear thickness was measured daily using a micrometer, and the increase of ear thickness relative to Day 0 (delta thickness) on each day after injection was calculated.

[3] = test system: SAA; assay: Mouse PD preference study: plasma SAA; assay type: in vivo, mice; conditions: at equivalent or superior Reg3β Cmax: 60K-PEG-IL22-D109C 0.1 mg/kg vs 60K-PEG-IL22-P120C 0.3 mg/kg vs IL-22-Fc 1 mg/kg, s.c.
Description: Based on the in vitro preference results and preliminary PD screening results, the molecules 60k-PEG-IL22-D109C and 60k-PEG-IL22-P120C were selected. PD testing was performed in three mice per dose group at different dose levels according to the method described in Example 14, including the pharmacodynamic-related molecule Reg3β and the inflammation-related molecule SAA. The control was IL-22-Fc. Blood samples were collected before dosing and at 4, 24, 48, 72, 96, 144, 192, 264, and 336 hours after dosing. Plasma was separated using anticoagulated blood samples. For the control molecules wt IL-22 and hB3-his, samples were collected only up to 96 hours.
The detection method for SAA was as follows: a kit containing detecting antibody pairs and positive controls (Abcam, Ab216059) was used to detect SAA concentrations in appropriately diluted plasma samples. The assay was performed according to the manufacturer's instructions. Sa-HRP (Pierce 21126) was used for conjugation. After washing, tetramethylbenzidine peroxidase substrate (TMB, Surmodics, TMBS-1000-01) was added for color development for 10 minutes. The reaction was terminated with 2 M sulfuric acid, and the plate was read at 450 nm with 630 nm as the reference using a microplate reader. SAA was measured before dosing and at 24, 48, 72, 96, and 144 hours after dosing. The original SAA concentration in each sample was calculated. […]

B1: 60K-PEG-IL22-P120C: IL-22 cysteine mutant, conjugation site 87, PEG-maleimide 60kD (conjugate)
chain: APISSHCRLDKSNFQQPYITNRTFMLAKEASLADNNTDVRLIGEKLFHGVSMSERCYLMKQVLNFTLEEVLFPQSDRFQPYMQEVVCFLARLSNRLSTCHIEGDDLHIQRNVQKLKDTVKKLGESGEIKAIGELDLLFMSLRNACI
Normalized Cmax ratio of Reg3β (relative to IL-22-Fc) ([1]; 0.5mg/kg single dose vs IL-22-Fc 0.3 mg/kg): 265%
Reg3βCmax ([1]; 0.5mg/kg single dose, test candidates s.c., one mouse per dose group): 41.8
Normalized Cmax ratio of Reg3β (relative to IL-22-Fc) ([1]; 1mg/kg single dose): 133%
Reg3βCmax ([1]; 1mg/kg single dose, s.c.): 43.9
Reg3βCmax ([1]; 3mg/kg single dose, s.c.): 43.3
peak concentrations of Reg3β stimulation compared with IL-22-Fc ([1]; similar (0.5 mg/kg vs. 0.3 mg/kg) or identical (1 mg/kg) doses): higher peak concentrations
equivalent dose required to induce a comparable overall increase in ear thickness, relative to IL-22-Fc [2]: approximately 8 fold
SAA Cmax compared with IL-22-Fc [3]: significantly lower
